Here are results for two molecules from PMC8759039, “EjRAV1/2 Delay Flowering Through Transcriptional Repression of EjFTs and EjSOC1s in Loquat”.

Series [1] has as its target T1, EjRAV1 (Eriobotrya japonica, UniProt A0A482LZ61 1-403). Description: EMSA; Beyotime EMSA/Gel Shift kit, chemiluminescent biotin detection; buffer, salt, pH and temperature not stated. As to conditions: protein: recombinant; tags: 6xHis (pET28a); label: biotin (ends); blunt.
Series [2] deals with EjRAV2 (Eriobotrya japonica, UniProt A0A482LTM5 1-406). The description is as above. The following applies: protein: recombinant; tags: 6xHis (pET28a); label: biotin (ends); blunt.
In series [3] the target is T1, EjRAV1. The series is described as follows: competition; excess unlabeled vs biotin P1; Beyotime EMSA/Gel Shift kit, chemiluminescent biotin detection; buffer, salt, pH and temperature not stated. As to conditions: protein: recombinant; tags: 6xHis (pET28a); blunt.

T1 sequence (A0A482LZ61 entry or part of it): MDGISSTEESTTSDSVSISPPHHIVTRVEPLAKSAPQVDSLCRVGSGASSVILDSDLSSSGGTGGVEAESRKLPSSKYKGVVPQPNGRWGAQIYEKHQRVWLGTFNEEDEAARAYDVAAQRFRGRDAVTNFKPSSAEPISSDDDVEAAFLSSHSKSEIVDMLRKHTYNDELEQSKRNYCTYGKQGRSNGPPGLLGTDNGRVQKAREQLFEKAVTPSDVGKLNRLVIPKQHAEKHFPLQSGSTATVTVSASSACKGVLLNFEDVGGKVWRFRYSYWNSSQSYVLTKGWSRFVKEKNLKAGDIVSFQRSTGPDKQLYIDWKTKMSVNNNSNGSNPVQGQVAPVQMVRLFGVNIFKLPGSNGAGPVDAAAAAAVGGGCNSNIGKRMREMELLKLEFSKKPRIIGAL
Sequence of EjRAV2 (A0A482LTM5 entry or part of it): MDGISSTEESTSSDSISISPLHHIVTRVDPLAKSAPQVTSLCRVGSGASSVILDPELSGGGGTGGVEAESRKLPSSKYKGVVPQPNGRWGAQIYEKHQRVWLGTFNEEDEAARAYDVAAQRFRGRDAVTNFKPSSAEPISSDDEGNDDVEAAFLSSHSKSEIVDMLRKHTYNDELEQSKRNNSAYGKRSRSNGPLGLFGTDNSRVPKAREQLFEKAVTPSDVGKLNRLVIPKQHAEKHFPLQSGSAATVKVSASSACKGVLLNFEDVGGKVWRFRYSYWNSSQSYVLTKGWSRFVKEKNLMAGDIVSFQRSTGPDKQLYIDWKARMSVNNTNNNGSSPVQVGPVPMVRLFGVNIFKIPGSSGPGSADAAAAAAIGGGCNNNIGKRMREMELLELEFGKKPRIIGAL

B1: EjFT1-P1 (dsDNA)
DNA 1: TGGCAATATGACATGCAATGCAACAGAATATAAATAGTTGATTTTG
DNA 2: CAAAATCAACTATTTATATTCTGTTGCATTGCATGTCATATTGCCA
As for B1, the binding result in series [1] is listed as “binds”; in series [2], “no binding”.

B2: EjFT1-P1 unlabeled (dsDNA)
DNA 1: TGGCAATATGACATGCAATGCAACAGAATATAAATAGTTGATTTTG
DNA 2: CAAAATCAACTATTTATATTCTGTTGCATTGCATGTCATATTGCCA
On to B2, for which, in series [3], the binding result was “binds”.
